The target of the test is rabbit anti-human IDO polyclonal antibody (raised against the KLH-conjugated peptide of SEQ ID NO: 1, affinity purified). The experiment in a line: flow cytometry of IFNgamma-activated monocyte-derived macrophages; antibody pre-adsorbed with immunizing peptide (competition against cellular IDO).

B1: immunizing peptide … (SEQ ID NO: 1), based on human IDO (peptide)
peptide: LIESGQLRERVEKLNMLC
In turn, B1 yielded a percent reduction of flow cytometry signal of over 95%.

The values are drawn from US20040234623A1.
